Data as given in PMC10630141, “OPUS-DSD: deep structural disentanglement for cryo-EM single-particle analysis” (Nature Methods, 2023).

Target: the molecule itself
Assay: cryo-EM structure; NEXT complex (MTR4, RBM7, ZCCHC8) purified on poly-flag-tag beads and Superdex 200, cross-linked in a 10-30% glycerol gradient with 0.2% glutaraldehyde, dialysed into 20 mM HEPES pH 7.4, 150 mM NaCl; single-particle analysis, signal of one MTR4 helicase domain subtracted

B1: ZCCHC8 (natural protein, UniProt Q6NZY4 1-707, looked up)
chain: MAAEVYFGDLELFEPFDHPEESIPKPVHTRFKDDDGDEEDENGVGDAELRERLRQCEETIEQLRAENQELKRKLNILTRPSGILVNDTKLDGPILQILFMNNAISKQYHQEIEEFVSNLVKRFEEQQKNDVEKTSFNLLPQPSSIVLEEDHKVEESCAIKNNKEAFSVVGSVLYFTNFCLDKLGQPLLNENPQLSEGWEIPKYHQVFSHIVSLEGQEIQVKAKRPKPHCFNCGSEEHQMKDCPMPRNAARISEKRKEYMDACGEANNQNFQQRYHAEEVEERFGRFKPGVISEELQDALGVTDKSLPPFIYRMRQLGYPPGWLKEAELENSGLALYDGKDGTDGETEVGEIQQNKSVTYDLSKLVNYPGFNISTPRGIPDEWRIFGSIPMQACQQKDVFANYLTSNFQAPGVKSGNKRSSSHSSPGSPKKQKNESNSAGSPADMELDSDMEVPHGSQSSESFQFQPPLPPDTPPLPRGTPPPVFTPPLPKGTPPLTPSDSPQTRTASGAVDEDALTLEELEEQQRRIWAALEQAESVNSDSDVPVDTPLTGNSVASSPCPNELDLPVPEGKTSEKQTLDEPEVPEIFTKKSEAGHASSPDSEVTSLCQKEKAELAPVNTEGALLDNGSVVPNCDISNGGSQKLFPADTSPSTATKIHSPIPDMSKFATGITPFEFENMAESTGMYLRIRSLLKNSPRNQQKNKKASE
notes: ZCCHC8 of the nuclear exosome-targeting (NEXT) complex; The complex was cross-linked with glutaraldehyde before the grids were made; ZCCHC8 forms the dimeric centre of the complex; also called ZCCHC8 center; ZCCHC8 dimeric center; source: HEK293 GnTI- cells infected with recombinant baculovirus, overexpressed separately; cell pellets of the three NEXT proteins mixed, purified as the complex …
stoichiometry N: 2
